Laboratory results as given in paper PMC10352329 (Nature Communications, 2023).
Where no end group is shown, it is not given here.

Columns and labels:
Settings in all cases: both partners purified
[1] = target: T1, human p300BRP (residues 1048–1282), wild type (human, UniProt Q09472 1048-1282, fluorescently labeled with a His tag Labeling Kit (microscale thermophoresis only)); assay: ITC; 100 µM protein in the cell, 1 mM acetylated histone NT peptide in the syringe; 25 °C; 10 mM HEPES-NaOH pH 7.4, 150 mM NaCl; single binding site model
T1 sequence (looked up): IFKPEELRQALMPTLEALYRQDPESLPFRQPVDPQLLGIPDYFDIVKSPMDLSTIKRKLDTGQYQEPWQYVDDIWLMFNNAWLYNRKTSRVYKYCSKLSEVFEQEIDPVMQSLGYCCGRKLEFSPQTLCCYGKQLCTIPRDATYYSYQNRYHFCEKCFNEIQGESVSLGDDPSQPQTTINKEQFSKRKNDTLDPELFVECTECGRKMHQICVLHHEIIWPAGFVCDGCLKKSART

[2] = target: T2, K12/K16-acetylated human histone H4 (as it stands in H4acNuc) (human, UniProt P62805 1-103, acetyl-lysine at K12 and K16); assay: cryo-EM structure; p300_(BRPHZT) or CBP_(BRPHZT), acetyl-CoA and nucleosome mixed 4:6:1 in 20 mM HEPES-NaOH pH 7.2, 150 mM NaCl, 1 μM ZnCl2, 1 mM TCEP; purified and cross-linked by GraFix (glutaraldehyde)
T2 construct: human histone H4 ORF with the codons of K12 and K16 replaced by TAG for acetyllysine; The H4 chain of m6; met p300/CBP only inside the nucleosome; also called H4K12ac/K16ac; H4NTac; source: cell-free synthesis (E. coli S30 extract, genetic code reprogramming), purified, assembled into H4acNuc

[3] = target: N-terminal bromodomain of human BRD4 (residues 44–168) (human, UniProt O60885 44-168); assay: ITC; 100 µM protein in the cell, 1 mM acetylated histone NT peptide in the syringe; 25 °C; 10 mM HEPES-NaOH pH 7.4, 150 mM NaCl; single binding site model

B1: di-acetylated H2B peptide K20ac/K23ac (peptide)
chain: KAVTK(Ac)AQK(Ac)KDGK
Kd [1]: 200 ± 30 µM

B2: human p300_(BRPHZT) (residues 1048–1836) (domain or fragment)
chain: IFKPEELRQALMPTLEALYRQDPESLPFRQPVDPQLLGIPDYFDIVKSPMDLSTIKRKLDTGQYQEPWQYVDDIWLMFNNAWLYNRKTSRVYKYCSKLSEVFEQEIDPVMQSLGYCCGRKLEFSPQTLCCYGKQLCTIPRDATYYSYQNRYHFCEKCFNEIQGESVSLGDDPSQPQTTINKEQFSKRKNDTLDPELFVECTECGRKMHQICVLHHEIIWPAGFVCDGCLKKSARTRKENKFSAKRLPSTRLGTFLENRVNDFLRRQNHPESGEVTVRVVHASDKTVEVKPGMKARFVDSGEMAESFPYRTKALFAFEEIDGVDLCFFGMHVQEYGSDCPPPNQRRVYISYLDSVHFFRPKCLRTAVYHEILIGYLEYVKKLGYTTGHIWACPPSEGDDYIFHCHPPDQKIPKPKRLQEWYKKMLDKAVSERIVHDYKDIFKQATEDRLTSAKELPYFEGDFWPNVLEESIKELEQEEEERKREENTSNESTDVTKGDSKNAKKKNNKKTSKNKSSLSRGNKKKPGMPNVSNDLSQKLYATMEKHKEVFFVIRLIAGPAANSLPPIVDPDPLIPCDLMDGRDAFLTLARDKHLEFSSLRRAQWSTMCMLVELHTQSQDRFVYTCNECKHHVETRWHCTVCEDYDLCITCYNTKNHDHKMEKLGLGLDDESNNQQAAATQSPGDSRRLSIQRCIQSLVHACQCRNANCSLPSCQKMKRVVQHTKGCKRKTNGGCPICKQLIALCCYHAKHCQENKCPVPFCLNIKQKLRQQQLQHRLQQAQMLRRRMASMQ
modifications: autoacetylated form containing K1542ac, K1546ac, K1549ac, K1550ac, K1551ac, K1554ac, K1555ac, K1558ac and K1560ac
binding result [2]: binds

B3: di-acetylated H2B peptide K12ac/K15ac (peptide)
chain: PAPKK(Ac)GSK(Ac)KAVTK
Kd [3]: 430 ± 5 µM

B4: human CBP_(BRPHZT) (residues 1084–1873) (domain or fragment)
chain: IFKPEELRQALMPTLEALYRQDPESLPFRQPVDPQLLGIPDYFDIVKNPMDLSTIKRKLDTGQYQEPWQYVDDVWLMFNNAWLYNRKTSRVYKFCSKLAEVFEQEIDPVMQSLGYCCGRKYEFSPQTLCCYGKQLCTIPRDAAYYSYQNRYHFCEKCFTEIQGENVTLGDDPSQPQTTISKDQFEKKKNDTLDPEPFVDCKECGRKMHQICVLHYDIIWPSGFVCDNCLKKTGRPRKENKFSAKRLQTTRLGNHLEDRVNKFLRRQNHPEAGEVFVRVVASSDKTVEVKPGMKSRFVDSGEMSESFPYRTKALFAFEEIDGVDVCFFGMHVQEYGSDCPPPNTRRVYISYLDSIHFFRPRCLRTAVYHEILIGYLEYVKKLGYVTGHIWACPPSEGDDYIFHCHPPDQKIPKPKRLQEWYKKMLDKAFAERIIHDYKDIFKQATEDRLTSAKELPYFEGDFWPNVLEESIKELEQEEEERKKEESTAASETTEGSQGDSKNAKKKNNKKTNKNKSSISRANKKKPSMPNVSNDLSQKLYATMEKHKEVFFVIHLHAGPVINTLPPIVDPDPLLSCDLMDGRDAFLTLARDKHWEFSSLRRSKWSTLCMLVELHTQGQDRFVYTCNECKHHVETRWHCTVCEDYDLCINCYNTKSHAHKMVKWGLGLDDEGSSQGEPQSKSPQESRRLSIQRCIQSLVHACQCRNANCSLPSCQKMKRVVQHTKGCKRKTNGGCPVCKQLIALCCYHAKHCQENKCPVPFCLNIKHKLRQQQIQHRLQQAQLMRRRMATMN
binding result [2]: binds
